In one assay the target is T1, human ASIC3 (human, UniProt Q9UHC3 1-531).
T1 construct: whole, on cells; Expressed on 3T3 cells (3T3/hASIC3) or HEK293 cells (HEK/hASIC3-QCells); also called hASIC3
T1 sequence (looked up): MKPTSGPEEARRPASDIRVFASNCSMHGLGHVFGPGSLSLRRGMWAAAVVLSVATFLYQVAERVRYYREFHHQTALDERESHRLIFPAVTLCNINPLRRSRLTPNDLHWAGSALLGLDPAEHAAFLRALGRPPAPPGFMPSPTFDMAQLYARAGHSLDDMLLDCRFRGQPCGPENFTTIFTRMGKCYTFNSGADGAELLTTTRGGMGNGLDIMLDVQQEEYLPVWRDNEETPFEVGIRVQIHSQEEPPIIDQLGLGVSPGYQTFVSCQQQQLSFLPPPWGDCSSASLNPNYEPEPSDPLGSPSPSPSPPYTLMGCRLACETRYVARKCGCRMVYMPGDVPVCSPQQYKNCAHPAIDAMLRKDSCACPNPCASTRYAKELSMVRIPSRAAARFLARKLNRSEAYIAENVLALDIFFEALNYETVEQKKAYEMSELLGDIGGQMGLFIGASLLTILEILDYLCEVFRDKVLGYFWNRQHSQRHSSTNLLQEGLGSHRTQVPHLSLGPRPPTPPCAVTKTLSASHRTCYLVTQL
As to the kind of experiment: FACS, 3T3/hASIC3 cells. An excerpt: (§1) For these experiments, four cell lines were constructed: (a) a mouse fibroblast 3T3 cell line stably transfected to overexpress full length human ASIC3 (3T3/hASIC3; amino acids 1-531 of NCBI accession number NP_{—}004760.1), (b) a 3T3 cell line stably transfected to co-express full length human ASIC1a and human ASIC3 (3T3/hASIC1/3; amino acids 1-528 of NCBI accession number NP_{—}001086.2 and amino acids 1-531 of NCBI accession number NP_{—}004760.1), (c) […] a stably transfected 3T3 cell line expressing the full-length mouse ASIC3 channel (3T3/mASIC3; amino acids 1-530 of NCBI accession number NP_{—}892045.2), and (d) a 3T3 cell line stably transfected to co-express full length mouse ASIC1a and mouse ASIC3 (3T3/mASIC1/3; amino acids 1-526 of NCBI accession number NP_{—}033727 and amino acids 1-530 of NCBI accession number NP_{—}892045.2). Antibody binding was determined using flow cytometry (FACS).
(§2) To perform the FACS binding experiments, adherent cells were collected with cold Millipore Accutase 3-5 minutes, spun and resuspended in ice-cold FACS buffer (PBS, 2% HI-FBS and 0.09% Na-azide). Anti-ASIC1 antibody at final concentrations of 10 nM was added for 20-30 minutes on ice. Cells were washed with 900 μL ice-cold FACS buffer, spun, and resuspended in 100 μL ice-cold FACS buffer. A secondary antibody which recognizes human Fc (Jackson Immuno Research, #109-136-098) and is conjugated to allophycocyanin, was then added to the cell mixture at a final concentration of 2.5 ug/mL. After incubating for 20 minutes on ice, the cells were washed and resuspended in FACS buffer, then sorted and analyzed on a flow cytometer (FACSCanto II, BD Biosciences, San Jose, Calif.) to determine relative binding by the candidate antibodies to the tested cell lines. Histograms of cells stained with anti-ASIC1 antibodies were compared with those of cells stained with secondary antibody alone. Percentage of ASIC1 signal over secondary antibody alone was calculated using FlowJo software (Tree Star, Ashland, Oreg.).

Assay [1] has as its target T2, mouse ASIC1/ASIC3 channels (co-expressed mouse ASIC1a and mouse ASIC3) (mouse, UniProt Q6NXK8 1-526; Q6X1Y6 1-530).
T2 construct: whole, on cells; 3T3 cells co-expressing both subunits; also called 3T3/mASIC1/3
T2 sequence (looked up) 1: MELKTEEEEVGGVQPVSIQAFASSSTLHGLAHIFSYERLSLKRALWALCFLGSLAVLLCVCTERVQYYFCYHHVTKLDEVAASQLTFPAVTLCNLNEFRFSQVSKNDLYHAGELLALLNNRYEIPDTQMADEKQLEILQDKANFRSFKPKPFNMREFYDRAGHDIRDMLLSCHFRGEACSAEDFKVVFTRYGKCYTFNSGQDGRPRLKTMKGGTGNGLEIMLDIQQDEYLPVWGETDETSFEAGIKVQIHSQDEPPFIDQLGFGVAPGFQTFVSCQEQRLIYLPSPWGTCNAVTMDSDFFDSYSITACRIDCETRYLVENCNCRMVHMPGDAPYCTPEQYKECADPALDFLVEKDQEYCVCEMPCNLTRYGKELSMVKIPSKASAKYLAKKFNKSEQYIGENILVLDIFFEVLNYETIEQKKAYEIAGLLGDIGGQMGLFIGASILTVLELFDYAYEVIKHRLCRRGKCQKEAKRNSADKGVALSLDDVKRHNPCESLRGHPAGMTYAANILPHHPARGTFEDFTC
T2 sequence (looked up) 2: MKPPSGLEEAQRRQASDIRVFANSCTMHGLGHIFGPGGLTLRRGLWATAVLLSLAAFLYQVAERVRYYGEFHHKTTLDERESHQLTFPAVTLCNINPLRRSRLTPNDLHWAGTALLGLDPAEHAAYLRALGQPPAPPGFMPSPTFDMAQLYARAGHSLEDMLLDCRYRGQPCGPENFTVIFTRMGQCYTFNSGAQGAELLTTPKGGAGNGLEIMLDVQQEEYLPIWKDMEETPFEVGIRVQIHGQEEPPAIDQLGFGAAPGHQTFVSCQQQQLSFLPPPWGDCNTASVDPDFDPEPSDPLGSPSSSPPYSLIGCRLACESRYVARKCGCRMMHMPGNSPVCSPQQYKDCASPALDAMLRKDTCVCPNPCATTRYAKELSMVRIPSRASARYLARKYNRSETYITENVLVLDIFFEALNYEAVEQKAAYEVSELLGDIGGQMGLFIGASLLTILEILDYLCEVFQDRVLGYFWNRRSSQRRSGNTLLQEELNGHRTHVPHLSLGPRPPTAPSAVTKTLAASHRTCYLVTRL
As to the kind of experiment: FACS, 3T3/mASIC1/3 cells, 10 nM antibody. Here is the method:
Antibody binding was determined using flow cytometry (FACS).
as §2
In general terms: A flow cytometer gives signals particle by particle.

The next assay addresses T3, mouse ASIC3 (mouse, UniProt Q6X1Y6 1-530).
T3 construct: whole, on cells; Expressed on stably transfected 3T3 cells (3T3/mASIC3); also called mASIC3
T3 sequence (looked up): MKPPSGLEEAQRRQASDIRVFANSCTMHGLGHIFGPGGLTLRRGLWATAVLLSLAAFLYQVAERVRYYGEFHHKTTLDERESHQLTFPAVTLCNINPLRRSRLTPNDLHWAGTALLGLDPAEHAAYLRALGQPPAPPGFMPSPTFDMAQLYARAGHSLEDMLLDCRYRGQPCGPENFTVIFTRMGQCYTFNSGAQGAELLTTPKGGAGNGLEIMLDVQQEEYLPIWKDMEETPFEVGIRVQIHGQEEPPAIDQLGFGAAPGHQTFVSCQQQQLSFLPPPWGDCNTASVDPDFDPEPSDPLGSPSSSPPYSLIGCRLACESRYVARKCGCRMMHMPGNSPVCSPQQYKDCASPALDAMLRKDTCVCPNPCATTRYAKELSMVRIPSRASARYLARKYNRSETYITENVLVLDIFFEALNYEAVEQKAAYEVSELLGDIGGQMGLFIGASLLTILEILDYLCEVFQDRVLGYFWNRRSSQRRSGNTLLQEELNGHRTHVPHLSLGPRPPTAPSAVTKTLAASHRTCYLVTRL
As to the kind of experiment: FACS, 3T3/mASIC3 cells.
Source text: as §1
To perform the FACS binding experiments, adherent cells were collected with cold Millipore Accutase 3-5 minutes, spun and resuspended in ice-cold FACS buffer (PBS, 2% HI-FBS and 0.09% Na-azide). […] After incubating for 20 minutes on ice, the cells were washed and resuspended in FACS buffer, then sorted and analyzed on a flow cytometer (FACSCanto II, BD Biosciences, San Jose, Calif.) to determine relative binding by the candidate antibodies to the tested cell lines. […]

Another assay has as its target T4, human ASIC1 (human, UniProt P78348 1-528).
T4 sequence: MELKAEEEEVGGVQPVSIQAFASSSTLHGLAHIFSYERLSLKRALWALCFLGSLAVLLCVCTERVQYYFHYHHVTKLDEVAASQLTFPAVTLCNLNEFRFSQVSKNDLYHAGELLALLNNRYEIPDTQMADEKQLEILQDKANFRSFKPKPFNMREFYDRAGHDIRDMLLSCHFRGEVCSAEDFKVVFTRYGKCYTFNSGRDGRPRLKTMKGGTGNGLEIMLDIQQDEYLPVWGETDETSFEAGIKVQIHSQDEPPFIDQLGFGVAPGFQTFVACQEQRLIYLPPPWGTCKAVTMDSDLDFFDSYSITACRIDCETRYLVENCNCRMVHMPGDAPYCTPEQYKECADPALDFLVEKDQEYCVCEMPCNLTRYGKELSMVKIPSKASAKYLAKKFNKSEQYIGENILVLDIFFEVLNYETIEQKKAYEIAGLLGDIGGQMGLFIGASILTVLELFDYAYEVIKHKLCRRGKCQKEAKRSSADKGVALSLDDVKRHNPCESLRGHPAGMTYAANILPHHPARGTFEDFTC
As to the kind of experiment: cell-based or functional assay.

The values below come from patent publication US20140056907A1 (Regeneron, published 2014).

B1: H4H6718N (antibody, human IgG4, V domains shown)
VH: EVQLLESGGGLVQPGGSLRLSCAASGFTFSSFAMSWVRQAPGKGLEWVSGISGSGGGTHYADSVKGRFTISRDNSKNMVYLQMNSLRAEDTAAYYCAKEAYKWQPWGQGTLVTVSS
VL: DIQMTQSPSTLSASVGDRVIITCRASQRISSWLAWYQQKPGKAPNLLIYKASILESGVPSRFSGSGSGTEFTLTISSLQPDDFATYYCQQYNSYSYTFGQGTKLEIK
With B1, the binding result with human ASIC3 is listed as “no binding (tested: 10 nM; gated lower than 1%)”; in assay [1], “binds”; in the assay with mouse ASIC3, “no binding (tested: 10 nM)”. The “apparent IC50, human ASIC1 current, Q-Patch” value with human ASIC1 is under 1 nM.
